# Data from patent US20170260289A1 (Novo Nordisk, published 2017).
# Assays:
# [1] = target: human TFPI alpha (full-length TFPIα) (human, UniProt P10646 29-304); assay: cell-based or functional assay
# [2] = target: endogenous TFPI of human plasma (human, UniProt P10646 29-304, limits assumed); assay: cell-based or functional assay
binder,measurement,setting,value
"mAb 0310 (antibody, human IgG1, kappa, V domains shown) VH: EVQLVESGGGLVKPGGSLRLSCAASGFTFSNYAMSWVRQTPEKRLEWVATISRSGSYSYFPDSVQGRFTISRDNAKNSLYLQMNSLRAEDTAVYYCARLGGYDEGDAMDSWGQGTTVTVSS VL: DIVMTQTPLSLSVTPGQPASISCKSSQSLLESDGKTYLNWYLQKPGQSPQLLIYLVSILDSGVPDRFSGSGSGTDFTLKISRVEAEDVGVYYCLQATHFPQTFGGGTKVEIKR","Peak (nM); thrombin generation, FVIII-neutralized plasma + 10 nM TFPI alpha; 100.0 nM mAb",[1],28.3 nM
same,"ttPeak (min); thrombin generation, FVIII-neutralized plasma + 10 nM TFPI alpha; 100.0 nM mAb",[1],24.5 min
same,"Peak (nM); thrombin generation, FVIII-neutralized plasma, no TFPI added; 10.0 nM mAb",[2],118 nM
same,"ttPeak (min); thrombin generation, FVIII-neutralized plasma, no TFPI added; 10.0 nM mAb",[2],8.5 min
